B1: anti-c-Met humanized antibody AAJ8D6 (antibody, human IgG1, kappa, V domains shown)
VH: QVQLEQSGPEVVKPGASVKVSCKASGYSFTSYWMHWVRQAPGQGLEWMGMIDPSDSESRLNQKFKDRVTMTVDTPTSTVYMELSSPRSEDTAVYYCARSGYHGTSYWYFDVWGQGTLVTVSS
VL: DIVMTQSPLSLPVTPGEPASISCRSSKSLLHSDGITYLYWYLQKPGQSPQLLIYQMSNLASGVPDRFSGSGSGTDFTLKISRVEAEDVGVYYCAQNLELPPTFGGGTKVEIKR
notes: also called AAJ8D6 antibody
B2: ABT-700 (telisotuzumab) (antibody, V domains shown)
VH: QVQLVQSGAEVKKPGASVKVSCKASGYIFTAYTMHWVRQAPGQGLEWMGWIKPNNGLANYAQKFQGRVTMTRDTSISTAYMELSRLRSDDTAVYYCARSEITTEFDYWGQGTLVTVSS
VL: DIVMTQSPDSLAVSLGERATINCKSSESVDSYANSFLHWYQQKPGQPPKLLIYRASTRESGVPDRFSGSGSGTDFTLTISSLQAEDVAVYYCQQSKEDPLTFGGGTKVEIKR

What was measured:
c-Met protein = biological target: T1, c-Met protein (UniProt P08581 25-932, limits assumed); assay: ELISA, plate coated with c-Met protein at 2 ug/ml, HRP detection antibody
T1 construct: The construct is not described; also called c-Met antigen
Method: The c-Met protein was prepared with a diluent to a final concentration of 2 μg/ml, and added to a microplate at 100 μl per well, overnight at 4° C. The solution in the well was discarded, and the plate was washed three times with PBST. The plate was added with a blocking solution at 300 μl/well and incubated at 37° C. for 2 h. The solution in the well was discarded, and the plate was washed three times with PBST. […] The solution in the well was discarded, and the plate was washed three times with PBST. HRP detection antibody was prepared by adding diluent at a dilution of 1:5000, added at 100 μl per well, and incubated at 37° C. for 1 h. The solution in the well was discarded, and the plate was washed three times with PB ST. The plate was added with TMB color developing solution, incubated at room temperature for 2 min, and then added with Elisa stop solution.

soluble ED protein = biological target: T2, soluble ED protein (UniProt P08581 25-932, limits assumed); assay: ELISA, plate coated with soluble ED protein, HRP anti-human IgG Fc detection
T2 construct: domain: ED; It is read here as the c-Met extracellular domain because the antibodies are anti-c-Met
Method: The affinities of chimeric cAAJ8D6 and the humanized antibody AAJ8D6 were determined by ELISA. A 96-well plate was coated with soluble ED protein and then incubated with diluted antibodies. ED-related antibodies were detected with an HRP-conjugated goat F(ab′)2 anti-human IgG Fc-specific secondary antibody.

T1 sequence (P08581 25-932 limits assumed): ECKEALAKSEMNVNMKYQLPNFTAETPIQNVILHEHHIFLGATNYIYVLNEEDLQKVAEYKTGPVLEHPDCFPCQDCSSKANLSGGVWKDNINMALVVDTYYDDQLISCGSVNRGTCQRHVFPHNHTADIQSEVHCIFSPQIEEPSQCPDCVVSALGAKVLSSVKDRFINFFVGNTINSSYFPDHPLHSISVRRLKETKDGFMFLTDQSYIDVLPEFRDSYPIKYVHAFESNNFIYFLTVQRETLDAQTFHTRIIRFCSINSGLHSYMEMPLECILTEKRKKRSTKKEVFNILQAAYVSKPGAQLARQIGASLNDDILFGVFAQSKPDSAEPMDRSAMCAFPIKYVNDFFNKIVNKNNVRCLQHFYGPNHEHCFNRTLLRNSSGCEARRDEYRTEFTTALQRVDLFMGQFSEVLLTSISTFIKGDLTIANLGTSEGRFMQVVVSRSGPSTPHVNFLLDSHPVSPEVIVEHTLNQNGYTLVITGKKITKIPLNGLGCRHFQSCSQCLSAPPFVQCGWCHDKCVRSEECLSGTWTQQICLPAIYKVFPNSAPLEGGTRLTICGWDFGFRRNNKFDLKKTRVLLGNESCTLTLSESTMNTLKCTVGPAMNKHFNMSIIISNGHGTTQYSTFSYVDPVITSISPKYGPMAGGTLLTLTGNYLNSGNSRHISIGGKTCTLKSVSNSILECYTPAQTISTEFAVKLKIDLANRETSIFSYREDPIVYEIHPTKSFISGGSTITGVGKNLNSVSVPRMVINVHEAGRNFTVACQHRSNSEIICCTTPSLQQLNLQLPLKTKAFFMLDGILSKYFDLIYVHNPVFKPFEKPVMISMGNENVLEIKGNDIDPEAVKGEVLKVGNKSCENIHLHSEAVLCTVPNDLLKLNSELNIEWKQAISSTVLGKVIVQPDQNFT
T2 sequence (P08581 25-932 limits assumed): as above

Binder | EC50 (c-Met protein) | EC50 (soluble ED protein)
B1 | 0.54 ng/mL | 3.53 ng/mL
B2 | 1.33 ng/mL | 

Source: patent US20240165253A1 (REMEGEN, published 2024)
